Data published in patent US20250076311A1 (Chugai, published 2025).

How the values were obtained:
[1] = target: T1, cynomolgus monkey FcγRIIIaS extracellular domain with C-terminal His-tag (cynomolgus monkey, UniProt Q8SPW2 21-206 at identity 1.00)); test: SPR, antibody captured, FcγR analyte
T1 construct: also called cyno FcgRIIIaS; cynoFcγRIIIaS
T1 chain: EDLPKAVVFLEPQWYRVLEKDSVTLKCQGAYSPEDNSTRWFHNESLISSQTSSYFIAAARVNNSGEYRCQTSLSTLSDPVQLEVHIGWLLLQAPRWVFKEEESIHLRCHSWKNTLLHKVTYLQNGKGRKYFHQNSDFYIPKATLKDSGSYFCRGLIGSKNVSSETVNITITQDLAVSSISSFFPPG

[2] = target: T1, cynomolgus monkey FcγRIIIaS …; test: SPR, KD(SG1)/KD(variant)
Description: (§1) The kinetic analysis of interactions between these antibodies and FcγR was carried out using BIACORE® T200 or BIACORE® 4000 (GE Healthcare). HBS-EP+ (GE Healthcare) was used as the running buffer, and the measurement temperature was set to 25° C. […] After the measurement, the antibody captured on the chip was washed off by allowing reaction with 10 mM glycine-HCl, pH1.5 and 25 mM NaOH so that the chip was regenerated and used repeatedly. The sensorgrams obtained as measurement results were analyzed by the 1:1 Langmuir binding model using the BIACORE® Evaluation Software to calculate the binding rate constant ka (L/mol/s) and dissociation rate constant kd (1/s), and the dissociation constant KD (mol/L) was calculated from these values. […] Regarding such interactions, KD values were calculated using the following 1:1 binding model described in BIACORE® T100 Software Handbook BR1006-48 Edition AE.

[3] = target: T2, cynomolgus monkey FcγRIIa2 extracellular domain with C-terminal His-tag (cynomolgus monkey); test: SPR, KD(SG1)/KD(variant)
T2 construct: also called cyno FcgRIIa2; cynoFcγRIIa2
T2 chain: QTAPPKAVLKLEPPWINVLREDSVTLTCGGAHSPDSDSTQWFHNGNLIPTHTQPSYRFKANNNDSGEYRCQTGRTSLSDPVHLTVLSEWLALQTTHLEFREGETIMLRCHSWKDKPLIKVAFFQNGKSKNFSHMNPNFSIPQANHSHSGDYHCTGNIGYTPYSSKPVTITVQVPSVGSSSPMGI
Description: as §1

[4] = target: T3, human FcγRIIIaV extracellular domain with C-terminal His-tag (human, UniProt P08637 17-208); test: SPR, KD(SG1)/KD(variant)
T3 construct: also called human FcgRIIIaV
T3 sequence (P08637 17-208 F176V): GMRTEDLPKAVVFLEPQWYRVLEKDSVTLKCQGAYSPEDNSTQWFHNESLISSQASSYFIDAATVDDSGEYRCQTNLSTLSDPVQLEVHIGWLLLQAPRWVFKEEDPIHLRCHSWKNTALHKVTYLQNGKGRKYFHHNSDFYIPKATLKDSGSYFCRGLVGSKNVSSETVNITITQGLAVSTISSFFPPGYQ
Description: as §1

[5] = target: T4, cynomolgus monkey FcγRIIa2 extracellular domain, His-tagged (cynomolgus monkey); test: SPR Biacore, antibody captured, FcgR analyte
T4 construct: also called cyno FcγRIIa2; cynoFcgRIIa2; not shown: C-terminal His-tag
T4 chain: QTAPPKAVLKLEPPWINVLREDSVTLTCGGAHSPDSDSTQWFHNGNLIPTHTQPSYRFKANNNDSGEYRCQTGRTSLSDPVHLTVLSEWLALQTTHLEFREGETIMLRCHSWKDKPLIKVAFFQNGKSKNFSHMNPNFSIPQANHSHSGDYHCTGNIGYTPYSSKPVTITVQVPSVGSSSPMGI

[6] = target: T5, cynomolgus monkey FcγRIIa3 extracellular domain, His-tagged (cynomolgus monkey); test: SPR Biacore, antibody captured, FcgR analyte
T5 construct: also called cyno FcγRIIa3; cynoFcgRIIa3; not shown: C-terminal His-tag
T5 chain: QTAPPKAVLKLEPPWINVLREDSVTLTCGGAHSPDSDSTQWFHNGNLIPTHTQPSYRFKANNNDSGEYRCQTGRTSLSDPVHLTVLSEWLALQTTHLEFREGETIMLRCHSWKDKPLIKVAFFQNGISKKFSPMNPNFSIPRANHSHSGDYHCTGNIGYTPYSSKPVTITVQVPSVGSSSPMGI

[7] = target: T6, human FcγRIIIaV extracellular domain, C-terminal His-tag (human, UniProt P08637 17-208); test: SPR (BIACORE), captured by anti-human kappa, FcgR analyte
T6 construct: also called FcgRIIIaV
T6 sequence (P08637 17-208 F176V): as the sequence (P08637 17-208 F176V) above
Description: as §1
Furthermore, the substitutions used in Example 29 for improving antibody half-life and reducing binding to rheumatoid factor were introduced into human FcγRIIb-enhanced Fc variants and their affinity against human FcγRs were analyzed (Table 29).

[8] = target: T7, cynomolgus monkey FcγRIIa1 extracellular domain with C-terminal His-tag (cynomolgus monkey); test: SPR, KD(SG1)/KD(variant)
T7 construct: also called cyno FcgRIIa1; cynoFcγRIIa1
T7 chain: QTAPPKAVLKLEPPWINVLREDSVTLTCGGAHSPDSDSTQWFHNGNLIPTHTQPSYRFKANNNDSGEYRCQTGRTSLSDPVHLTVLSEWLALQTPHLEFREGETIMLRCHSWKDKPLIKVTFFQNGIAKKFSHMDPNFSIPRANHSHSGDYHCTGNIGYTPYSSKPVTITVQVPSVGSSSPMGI
Description: as §1

B1: MS1032LO06-MY352 (antibody, human IgG1, kappa)
heavy: QVTLKESGPVLVKPTETLTLTCTVSGIDLSHDDISWVRQAPGKGLEWVGIISYAGSTYYASWAKGRLTISKDTSKNQVVLTMTNMDPVDTATYYCARGVPAYSHGGDLWGQGTLVTVSSASTKGPSVFPLAPSSKSTSGGTAALGCLVKDYFPEPVTVSWNSGALTSGVHTFPAVLQSSGLYSLSSVVTVPSSSLGTQTYICNVNHKPSNTKVDKKVEPKSCDKTHTCPPCPAPELLNGPSVFLFPPKPKDTLMISRTPEVTCVVVDVSDEDPEVKFNWYVDGVEVHNAKTKPREEQYNSTYRVVSVLTVLHRDWLNGKEYKCKVSNKALPKPIEKTISKAKGQPREPQVYTLPPSREEMTKNQVSLTCLVKGFYPSDIAVEWESNGQPENNYKTTPPVLDSDGSFFLYSKLTVRKSRWQQGNVFSCSVMHEALHNHYTQKSLSLSP
light: DIVMTQSPATLSLSPGERATLSCTSSQSVYHANWLSWFQQKPGQPPKLLIYWASTLAYGVPSRFSGSGSGTDFTLTISSLQPEDAATYYCAGGYGGGRYAFGQGTKVEIKRTVAAPSVFIFPPSDEQLKSGTASVVCLLNNFYPREAKVQWKVDNALQSGNSQESVTEQDSKDSTYSLSSTLTLSKADYEKHKVYACEVTHQGLSSPVTKSFNRGEC
notes: MY201 with Q311R/D413R; also called M103205H795-MY352; copies: 2 + 2
Kd [1]: 4 µM
KD fold (SG1 = 1) [2]: 0.07 fold
KD fold (SG1 = 1) [3]: 3.3 fold
KD fold (SG1 = 1) [4]: 0.04 fold

B2: M103205H795-MY064/M103202L889-SK1 (antibody, human IgG1, kappa, name in EU numbering)
heavy: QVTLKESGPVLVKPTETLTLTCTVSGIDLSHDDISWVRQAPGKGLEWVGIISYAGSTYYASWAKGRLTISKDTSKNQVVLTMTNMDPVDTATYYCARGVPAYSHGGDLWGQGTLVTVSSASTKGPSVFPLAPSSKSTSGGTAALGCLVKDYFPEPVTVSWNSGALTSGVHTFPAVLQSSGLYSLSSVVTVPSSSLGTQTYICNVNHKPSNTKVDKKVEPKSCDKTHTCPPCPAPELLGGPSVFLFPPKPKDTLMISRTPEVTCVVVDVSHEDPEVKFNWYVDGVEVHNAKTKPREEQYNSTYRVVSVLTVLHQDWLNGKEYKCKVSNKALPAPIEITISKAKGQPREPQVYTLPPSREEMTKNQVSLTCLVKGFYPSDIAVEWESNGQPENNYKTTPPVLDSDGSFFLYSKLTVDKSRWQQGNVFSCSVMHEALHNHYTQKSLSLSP
light: DIVMTQSPATLSLSPGERATLSCTSSQSVYHANWLSWFQQKPGQPPKLLIYWASTLAYGVPSRFSGSGSGTDFTLTISSLQPEDAATYYCAGGYGGGRYAFGQGTKVEIKRTVAAPSVFIFPPSDEQLKSGTASVVCLLNNFYPREAKVQWKVDNALQSGNSQESVTEQDSKDSTYSLSSTLTLSKADYEKHKVYACEVTHQGLSSPVTKSFNRGEC
notes: Substitution introduced into M103205H795-SG1; EU numbering
Kd [5]: 2.6 µM
Kd [6]: 6.9 µM

B3: MS103240H795-TT69/M103202L1045-SK1 (antibody)
heavy: QVQLVESGGGLVQPGGSLRLSCAVSGIDLSHDDISWVRQAPGKGLEWVSIISYAGSTYYASWAKGRLTISKDTSKNQVVLTMTNMDPVDTATYYCARGVPAYSHGGDLWGQGTLVTVSSASTKGPSVFPLAPSSKSTSGGTAALGCLVKDYFPEPVTVSWNSGALTSGVHTFPAVLQSSGLYSLSSVVTVPSSSLGTQTYICNVNHKPSNTKVDKKVEPKSCDKTHTCPPCPAPELLGGDSVFLFPPKPKDVLMISRTPEVTCVVVDVSHEDPEVKFNWYVDGVEVHNAKTKPREEQYNSTYRVVSVLPVLHRDWLNGKEYKCKVSNKALPKPIEKTISKAKGQPREPQVYTLPPSREEMTKNQVSLTCLVKGFYPSDIAVEWESNGQPENNYKTTPPVLDSDGSFFLYSKLTVKKSRWQQGNVFSCSVLHEALHAHTTRKELSLSP
light: DIVMTQSPATLSLSPGERATLSCTTSQSVYHENWLSWFQQKPGQPPKLLIYWASTLAYGVPSRFSGSGSGTDFTLTISSLQPEDAATYYCAGGYGGGRYAFGQGTKVEIKRTVAAPSVFIFPPSDEQLKSGTASVVCLLNNFYPREAKVQWKVDNALQSGNSQESVTEQDSKDSTYSLSSTLTLSKADYEKHKVYACEVTHQGLSSPVTKSFNRGEC
notes: copies: 2 + 2
Kd [7]: 930 µM

B4: M103205H795-MY066/M103202L889-SK1 (antibody, human IgG1, kappa, name in EU numbering)
heavy: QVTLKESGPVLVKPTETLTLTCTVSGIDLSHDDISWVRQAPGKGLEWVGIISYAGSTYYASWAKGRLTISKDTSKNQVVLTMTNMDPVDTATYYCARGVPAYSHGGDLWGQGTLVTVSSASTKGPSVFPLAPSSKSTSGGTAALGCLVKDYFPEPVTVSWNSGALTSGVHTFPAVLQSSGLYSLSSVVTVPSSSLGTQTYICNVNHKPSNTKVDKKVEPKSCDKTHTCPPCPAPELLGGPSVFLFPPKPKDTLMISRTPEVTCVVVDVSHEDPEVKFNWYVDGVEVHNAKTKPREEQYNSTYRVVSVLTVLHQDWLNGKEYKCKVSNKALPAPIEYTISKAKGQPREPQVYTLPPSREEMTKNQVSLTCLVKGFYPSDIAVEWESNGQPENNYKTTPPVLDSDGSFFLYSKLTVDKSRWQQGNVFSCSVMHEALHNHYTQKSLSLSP
light: DIVMTQSPATLSLSPGERATLSCTSSQSVYHANWLSWFQQKPGQPPKLLIYWASTLAYGVPSRFSGSGSGTDFTLTISSLQPEDAATYYCAGGYGGGRYAFGQGTKVEIKRTVAAPSVFIFPPSDEQLKSGTASVVCLLNNFYPREAKVQWKVDNALQSGNSQESVTEQDSKDSTYSLSSTLTLSKADYEKHKVYACEVTHQGLSSPVTKSFNRGEC
notes: as for B2
Kd [5]: 2.6 µM
Kd [6]: 6.7 µM

B5: MS103240H795-TT90/M103202L1045-SK1 (antibody)
heavy: QVQLVESGGGLVQPGGSLRLSCAVSGIDLSHDDISWVRQAPGKGLEWVSIISYAGSTYYASWAKGRLTISKDTSKNQVVLTMTNMDPVDTATYYCARGVPAYSHGGDLWGQGTLVTVSSASTKGPSVFPLAPSSKSTSGGTAALGCLVKDYFPEPVTVSWNSGALTSGVHTFPAVLQSSGLYSLSSVVTVPSSSLGTQTYICNVNHKPSNTKVDKKVEPKSCDKTHTCPPCPAPEYLGGDSVFLFPPKPKDVLMISRTPEVTCVVIDVSHEDPEVKFNWYVDGVEVHNAKTKPREEQYNSTYRVVSVLPVLHRDWLNGKEYKCKVSNKALPKPIEKTISKAKGQRREPQVYTLPPSREEMTKNQVSLTCLVKGFYPSDIAVEWESNGQPENNYKTTPPVLDSDGSFFLYSKLTVDKSRWQQGNVFSCSVMHEALHAHYTRKELSLSP
light: DIVMTQSPATLSLSPGERATLSCTTSQSVYHENWLSWFQQKPGQPPKLLIYWASTLAYGVPSRFSGSGSGTDFTLTISSLQPEDAATYYCAGGYGGGRYAFGQGTKVEIKRTVAAPSVFIFPPSDEQLKSGTASVVCLLNNFYPREAKVQWKVDNALQSGNSQESVTEQDSKDSTYSLSSTLTLSKADYEKHKVYACEVTHQGLSSPVTKSFNRGEC
Kd [7]: 960 µM

B6: MS1032LO06-PK55 (antibody, human IgG1, kappa)
heavy: QVTLKESGPVLVKPTETLTLTCTVSGIDLSHDDISWVRQAPGKGLEWVGIISYAGSTYYASWAKGRLTISKDTSKNQVVLTMTNMDPVDTATYYCARGVPAYSHGGDLWGQGTLVTVSSASTKGPSVFPLAPSSKSTSGGTAALGCLVKDYFPEPVTVSWNSGALTSGVHTFPAVLQSSGLYSLSSVVTVPSSSLGTQTYICNVNHKPSNTKVDKKVEPKSCDKTHTCPPCPAPELLNGPSVFLFPPKPKDTLMISRTPEVTCVVVDVSDEDPEVKFNWYVDGVEVHNAKTKPREEQYNSTYRVVSVLTVLHRDWLNGKEYKCKVSNKALPKPIEKTISKAKGQRREPQVYTLPPSREEMTKNQVSLTCLVKGFYPSDIAVEWESNGQPENNYKTTPPVLDSDGSFFLYSKLTVDKSRWQQGNVFSCSVMHEALHNHYTQKSLSLSP
light: DIVMTQSPATLSLSPGERATLSCTSSQSVYHANWLSWFQQKPGQPPKLLIYWASTLAYGVPSRFSGSGSGTDFTLTISSLQPEDAATYYCAGGYGGGRYAFGQGTKVEIKRTVAAPSVFIFPPSDEQLKSGTASVVCLLNNFYPREAKVQWKVDNALQSGNSQESVTEQDSKDSTYSLSSTLTLSKADYEKHKVYACEVTHQGLSSPVTKSFNRGEC
notes: MY201 with Q311R/P343R; also called MS103205H795-PK55; M103205H795-MY55
Kd [1]: 3.3 µM
KD fold (SG1 = 1) [2]: 0.08 fold
KD fold (SG1 = 1) [8]: 3.5 fold

B7: MS103240H795-TT72/M103202L1045-SK1 (antibody)
heavy: QVQLVESGGGLVQPGGSLRLSCAVSGIDLSHDDISWVRQAPGKGLEWVSIISYAGSTYYASWAKGRLTISKDTSKNQVVLTMTNMDPVDTATYYCARGVPAYSHGGDLWGQGTLVTVSSASTKGPSVFPLAPSSKSTSGGTAALGCLVKDYFPEPVTVSWNSGALTSGVHTFPAVLQSSGLYSLSSVVTVPSSSLGTQTYICNVNHKPSNTKVDKKVEPKSCDKTHTCPPCPAPELLGGDSVFLFPPKPKDVLMISRTPEVTCVVIDVSHEDPEVKFNWYVDGVEVHNAKTKPREEQYNSTYRVVSVLPVLHRDWLNGKEYKCKVSNKALPKPIEKTISKAKGQPREPQVYTLPPSREEMTKNQVSLTCLVKGFYPSDIAVEWESNGQPENNYKTTPPVLDSDGSFFLYSKLTVKKSRWQQGNVFSCSVMHEALHAHYTRKELSLSP
light: DIVMTQSPATLSLSPGERATLSCTTSQSVYHENWLSWFQQKPGQPPKLLIYWASTLAYGVPSRFSGSGSGTDFTLTISSLQPEDAATYYCAGGYGGGRYAFGQGTKVEIKRTVAAPSVFIFPPSDEQLKSGTASVVCLLNNFYPREAKVQWKVDNALQSGNSQESVTEQDSKDSTYSLSSTLTLSKADYEKHKVYACEVTHQGLSSPVTKSFNRGEC
notes: copies: 2 + 2
Kd [7]: 900 µM
